The values that follow come from PMC2821923, “Visualizing Interactions along the Escherichia coli Twin-Arginine Translocation Pathway Using Protein Fragment Complementation” (PLoS ONE, 2010).

The target of data set [1] is ssDmsA-Y1 (DmsA signal peptide fused to the N-terminal YFP fragment) (E. coli). The data set is described as follows: split reporter (BiFC, NanoBiT); split YFP (Y1 1-154, Y2 155-238) BiFC in living E. coli TG1 cells (wt; also ΔtatE, ΔtatB, ΔtatC, ΔtatAE, ΔtatABCE); 1 mM IPTG, 8 h at room temperature; median cell fluorescence by flow cytometry, normalised to ssDmsA-Y1/DmsD-Y2, and fluorescence microscopy; substrate or signal peptide with …. In general terms: A flow cytometer gives signals particle by particle.

Data set [2] concerns the target DmsA-Y1 (entire DmsA enzyme fused to the N-terminal YFP fragment) (E. coli) (UniProt P18775). The description is as above.
Data set [3] concerns the target TatC fused to a YFP fragment (TatC-Y1; TatC-Y2) (E. coli) (UniProt P69423). Description: split reporter (BiFC, NanoBiT); split YFP BiFC in living TG1 ΔtatABCE cells (TatA also in ΔtatAE, TatB/TatC also in ΔtatB and ΔtatC); median fluorescence by flow cytometry against unfused Y1 or Y2 controls, fluorescence microscopy.
In data set [4] the target is TatB fused to a YFP fragment (TatB-Y1; TatB-Y2) (E. coli) (UniProt P69425). The description is as above.
Data set [5] concerns the target TatC(P48A) fused to a YFP fragment (P48A-Y1; P48A-Y2) (E. coli) (UniProt P69423). Described as above.
For data set [6], the target named is TatC(E103R) fused to a YFP fragment (E103R-Y1; E103R-Y2) (E. coli) (UniProt P69423). Described as above.
Data set [7] concerns the molecule itself. The data set is described as above.

In data set [1], “DmsD fused to a YFP fragment (DmsD-Y2; DmsD-Y1) (from UniProt P69853 1-204) (natural protein)” showed a BiFC fluorescence, fold over background (unfused Y1 with DmsD-Y2) of 5 fold and a median fluorescence (M) of 2250. This molecule returned a ssDmsA binding activity in data set [1] (scale: relative) of 1. This molecule also showed a BiFC signal relative to the ssDmsA-Y1/DmsD-Y2 pair in data set [2] of 50%. This molecule also displayed a DmsA binding activity in data set [2] (scale: relative) of 0.62.
With ssDmsA(KK)-Y1 (domain or fragment), the BiFC signal, fold above background in data set [3] came to 10.7 fold; in data set [4] it was 5.4 fold.
In the case of “ssDmsA-Y1 (DmsA signal peptide fused to the N-terminal YFP fragment) (domain or fragment)”, the values for the BiFC signal, fold above background in data set [3] and in data set [4] were 7 fold and 3.5 fold, respectively. The BiFC signal, fold less than with wt TatC in data set [5] and in data set [6] was 2 fold each time.

B1: TatA(F39A) fused to a YFP fragment (F39A-Y1; F39A-Y2) (natural protein, E. coli, UniProt P69428 1-89, looked up)
chain: MGGISIWQLLIIAVIVVLLFGTKKLGSIGSDLGASIKGAKKAMSDDEPKQDKTSQDADFTAKTIADKQADTNQEQAKTEDAKRHDKEQV
notes: TatA, E. coli, full length, with F39A in the predicted amphipathic region; also called TatA(F39A)-Y1; TatA(F39)-Y2; source: E. coli TG1 ΔtatABCE (also TG1 ΔtatAE), co-expressed from plasmids pF39A-Y1 and pF39A-Y2, in living cells
On to B1, for which the “BiFC signal relative to the wt TatA homo-oligomers” value in data set [7] is around 2 fold.
